Positions count from the first letter of the chain named. One block for each binder: values may come before it.
Assays:
[1] = molecular target: T1, human PD-L1^ECD-hFc protein (human, UniProt Q9NZQ7 19-239, biotinylated in the PD-1 binding ELISA (Table 3) and in the Octet assay (Table 12)); test: ELISA, mAb concentration not given
T1 construct: The plain and the biotinylated protein are kept as one molecule; also called PD-L1-hFc; Immunogen A; not shown: human IgG Fc fragment (hFc)
Description: (§1) 100 μL of the diluted recombinant proteins were added to each well of 96-well plate. The plates were sealed with plastic film and incubated at 4° C. overnight. The plates were washed twice with wash buffer (PBS+0.01% (v/v) Tween20), and incubated with blocking buffer (PBS+0.01% (v/v) Tween20+1% (w/w) BSA) at room temperature for 2 hours. The blocking buffer was aspirated away, and 100 μL of purified anti-PD-L1 antibodies were added to each well and incubated for 2 hours at 37° C. The plates were washed three times with wash buffer (PBS+0.01% (v/v) Tween20). HRP-conjugated secondary antibody (Sigma) was added to each well and incubated for 2 hours at 37° C. After the plates were washed three times with wash buffer, 100 μL TMB substrate were added to each well, and the plates were incubated for 30 minutes at room temperature. 100 μL stop solution (0.1N HCl) was added to each well to stop the reaction.

hPD-L2 = molecular target: T2, hPD-L2 (human, UniProt Q9BQ51 20-219, limits assumed); test: ELISA, mAb concentration not given
T2 construct: Bought protein
T2 sequence (looked up): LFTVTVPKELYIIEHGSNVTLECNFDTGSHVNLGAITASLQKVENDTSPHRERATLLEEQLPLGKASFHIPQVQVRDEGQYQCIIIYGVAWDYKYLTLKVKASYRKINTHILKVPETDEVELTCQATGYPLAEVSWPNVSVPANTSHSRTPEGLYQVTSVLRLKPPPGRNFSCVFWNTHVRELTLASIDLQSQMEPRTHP
Description: as §1

[2] = molecular target: T3, cyno PD-L1^ECD-hFc protein (cyno, UniProt G7PSE7 19-239); test: ELISA, 10 nM mAb
T3 construct: also called Cyno Monkey PD-L1^ECD-hFc
T3 sequence (G7PSE7 entry or part of it limits assumed): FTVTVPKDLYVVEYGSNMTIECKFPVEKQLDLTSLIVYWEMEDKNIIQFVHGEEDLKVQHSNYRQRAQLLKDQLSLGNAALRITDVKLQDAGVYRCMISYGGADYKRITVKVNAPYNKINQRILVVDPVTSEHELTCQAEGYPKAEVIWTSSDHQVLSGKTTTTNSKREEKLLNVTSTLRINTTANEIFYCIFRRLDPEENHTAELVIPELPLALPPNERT
Description: as §1

[3] = molecular target: T1, human PD-L1^ECD-hFc protein; test: ELISA, 0.123 nM mAb
Description: as §1

[4] = molecular target: T3, cyno PD-L1^ECD-hFc protein; test: ELISA, 0.123 nM mAb
Description: as §1

[5] = molecular target: T4, full length human PD-L1 on cells (human, UniProt Q9NZQ7 19-290); test: FACS CHO-K1-hPD-L1, 1.23 nM mAb
T4 construct: Also used as the target of the cell-based functional assays (transfected stimulator cells; PD-L1 of the cells in the mixed lymphocyte reaction); also called CHO-K1-hPD-L1; CHOK1-hPD-L1
T4 sequence (Q9NZQ7 19-290 limits assumed): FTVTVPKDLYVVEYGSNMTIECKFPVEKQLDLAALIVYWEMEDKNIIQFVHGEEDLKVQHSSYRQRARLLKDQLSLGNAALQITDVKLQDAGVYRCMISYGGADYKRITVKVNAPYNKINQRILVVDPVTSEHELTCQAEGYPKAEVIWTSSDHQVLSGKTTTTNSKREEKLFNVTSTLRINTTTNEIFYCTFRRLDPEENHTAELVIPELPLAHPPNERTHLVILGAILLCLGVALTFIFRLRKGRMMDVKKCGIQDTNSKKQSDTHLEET

[6] = molecular target: T1, human PD-L1^ECD-hFc protein; test: ELISA, 0.1 nM mAb
Description: as §1

[7] = molecular target: T1, human PD-L1^ECD-hFc protein; test: ELISA receptor-ligand blocking assay: PD-L1^ECD-hFc coated on the plate, antibody titrated, blocked ligand biotinylated B7.1^ECD, HRP-streptavidin, inhibition rate (%)
Description: Purified PD-L1^ECD-hFc (Example 2) was diluted with PBS to a final concentration of 1.0 μg/mL, and 100 μL diluted PD-L1^ECD-hFc were added to each well of a 96-well plate that was then sealed with plastic film and incubated at 4° C. overnight. The plate was washed twice with wash buffer (PBS+0.01% (v/v) Tween 20) and incubated with blocking buffer (PBS+[…]) at room temperature for 2 hours. The blocking buffer was aspirated, and 50 μL purified anti-PD-L1 antibodies from Example 2 were added to each well of 96-well plate. […] The plate was washed three times with wash buffer (PBS+0.01% (v/v) Tween 20). 100 μL HRP-conjugated streptavidin (Sigma) were then added to each well and incubated at 37° C. for 2 hours. The plate was then washed three times with wash buffer, and 100 μL TMB substrate were added to each well. After 30 minutes of incubation at room temperature, the reaction was stopped by adding 100 μL stop solution (0.1N HCl).

[8] = molecular target: T5, full length cyno PD-L1 on cells (cyno, UniProt G7PSE7 19-290); test: FACS CHO-K1-cPD-L1, 0.001 nM mAb
T5 construct: also called CHO-K1-cPD-L1
T5 sequence (G7PSE7 entry or part of it limits assumed): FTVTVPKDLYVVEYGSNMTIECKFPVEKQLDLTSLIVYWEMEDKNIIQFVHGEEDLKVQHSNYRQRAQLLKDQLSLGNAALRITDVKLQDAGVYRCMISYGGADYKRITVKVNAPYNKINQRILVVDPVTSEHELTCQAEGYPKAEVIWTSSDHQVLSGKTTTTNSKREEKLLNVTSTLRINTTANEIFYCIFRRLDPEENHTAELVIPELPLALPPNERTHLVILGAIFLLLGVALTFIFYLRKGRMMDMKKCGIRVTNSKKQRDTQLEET
Description: (§2) Other CHO-K1 were stably transfected with a pIRES plasmid containing the nucleic acid sequence encoding full length cyno PD-L1 to generate CHO-K1 cells stably expressing cyno PD-L1 (herein referred to as CHO-K1-cPD-L1 cells). […] The culture media was aspirated, and the cells were washed twice with HBSS (Hanks Balanced Salt Solution, Invitrogen). The cells were treated with enzyme-free cell dissociation solution (Versene solution, Invitrogen) and collected. The cells were then washed twice with HBSS, cell counts were determined, and cells were resuspended with HBSS at 2×10⁶ cells/mL. Goat serum was added to the cell suspension to a final concentration of 1%, and the cells were blocked for 30 minutes on ice and then washed twice with HBSS. The cells were collected after centrifugation and resuspended in FACS buffer (HBSS+1% BSA, v/v) at 2×10⁶ cells/mL. 100 μL of the cell suspension were then added to each well of 96-well plate. 100 μL of purified anti-PD-L1 antibodies from Example 2 were added to each well of the 96-well plate and incubated for 2 hours on ice. […] The samples were washed three times with FACS buffer, and 100 μL fixation buffer (4% paraformaldehyde v/v) were added to each well and incubated for 10 minutes. The cells were then washed twice with FACS buffer and resuspended in 100 μL FACS buffer. The mean fluorescence intensity (MFI) was determined using FACS Calibur (BD), and the results are shown in FIGS. 7-8 and in Tables 10-11.

[9] = molecular target: T4, full length human PD-L1 on cells; test: FACS CHO-K1-hPD-L1, 10 nM mAb
Description: as §2

[10] = molecular target: T5, full length cyno PD-L1 on cells; test: FACS CHO-K1-cPD-L1, 0.001 nM mAb as printed (second such column)
Description: as §2

[11] = molecular target: T4, full length human PD-L1 on cells; test: cell-based or functional assay

T1 sequence (Q9NZQ7 19-239): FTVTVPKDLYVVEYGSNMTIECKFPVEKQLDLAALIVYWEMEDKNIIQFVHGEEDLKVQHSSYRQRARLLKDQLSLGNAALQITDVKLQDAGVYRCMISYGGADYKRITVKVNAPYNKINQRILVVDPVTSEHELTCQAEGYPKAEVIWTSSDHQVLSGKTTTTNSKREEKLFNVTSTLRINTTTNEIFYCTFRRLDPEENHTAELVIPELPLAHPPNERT

B1: chimeric anti-PD-L1 antibody 73D3G2 (antibody, V domains shown)
VH: EVQLVESGGGLVQPGGSLRLSCAASGFTFNTYWMNWVRQAPGRGLEWVANIKQDGGEKYYVDSVKGRFTISRDNAKNSLYLQMNSLRAEDTAMYYCARDGRSWYPDAFDIWGQGTVVTVSS
VL: DIQMTQSPSTLSASVGDRVTITCRASQSISTWLAWYQQKLGKAPKLLIYEVSILESGVPSRFSGSGSGTEFTLTISSLQPDDFATYYCQQYHSFSSFGGGTRVEIK
notes: Purified from hybridoma of Harbour H2L2 mice: human variable regions, rat constant regions
OD450 nm [1]: 2.75
OD450 nm (hPD-L2): 0.156
OD450 nm [2]: 2.09
OD450 nm [3]: 0.72
OD450 nm [4]: 0.72
Mean fluorescence intensity [5]: 106

B2: chimeric anti-PD-L1 antibody 78A11F6 (antibody, V domains shown)
VH: EVQLVESGGGLVQPGGSLRLSCAASGITFSSYWMSWVRQTPGKGLEWVANIKQDGSEKYYVKSVKGRFTISRDNAKNSLYLQMNSLRAEDTAVYYCVRDRAVPGTGAFDIWGQGTMVIVSS
VL: DIQMTQSPSTLSASVGDRVTITCRASQSISNWLAWYQQKPGKAPKLLIYKASSLESGVPSRFSGSGSGTEFTLTISSLQPDDFATYYCQQYDSSLFTFGQGTKLEIK
notes: as for B1
OD450 nm [1]: 2.71
OD450 nm (hPD-L2): 0.205
OD450 nm [2]: 2.07
OD450 nm [3]: 0.84
OD450 nm [4]: 0.91
Mean fluorescence intensity [5]: 174

B3: chimeric anti-PD-L1 antibody 73G11B3 (antibody, V domains shown)
VH: B2 VH with A23V, A24V, I27F, K62D, F68L, F108L, I118T
VL: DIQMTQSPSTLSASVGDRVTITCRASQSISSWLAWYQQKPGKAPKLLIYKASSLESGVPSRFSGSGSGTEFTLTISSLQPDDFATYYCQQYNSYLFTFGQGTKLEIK
notes: as for B1
OD450 nm [6]: 0.88
IC50 (read off the curve) [7]: ~0.5 nM
Mean fluorescence intensity [8]: 2.02
Mean fluorescence intensity [9]: 213
Mean fluorescence intensity [10]: 1.78
IL-2 (pg/mL), MLR donor 2, 0.001 µg/mL mAb [11]: 54.2 pg/mL
IL-2 (pg/mL), MLR donor 2, 0.01 µg/mL mAb [11]: 90.1 pg/mL
IL-2 (pg/mL), MLR donor 2, 0.1 µg/mL mAb [11]: 110 pg/mL
IL-2 (pg/mL), MLR donor 2, 1 µg/mL mAb [11]: 140 pg/mL

Results, then the binder that gave them:

OD450 nm [6]: 1.55
Mean fluorescence intensity [8]: 1.93
Mean fluorescence intensity [9]: 134
Mean fluorescence intensity [10]: 1.75
IL-2 (pg/mL), MLR donor 2, 0.001 µg/mL mAb [11]: 73.4 pg/mL
IL-2 (pg/mL), MLR donor 2, 0.01 µg/mL mAb [11]: 130 pg/mL
IL-2 (pg/mL), MLR donor 2, 0.1 µg/mL mAb [11]: 120 pg/mL
IL-2 (pg/mL), MLR donor 2, 1 µg/mL mAb [11]: 94.4 pg/mL
B4: chimeric anti-PD-L1 antibody 192D9E7 (antibody, V domains shown)
VH: EVQLVESGGGLVQPGGSLRLSCAASGFTFSSYWMSWVRQAPGKGLEWVADIKQDGSEKYYVDSVKGRFTISRDNAKNSLYLQMNSLRAEDTAVYYCTRDKPHWGGVMDAWGQGTSVTVSS
VL: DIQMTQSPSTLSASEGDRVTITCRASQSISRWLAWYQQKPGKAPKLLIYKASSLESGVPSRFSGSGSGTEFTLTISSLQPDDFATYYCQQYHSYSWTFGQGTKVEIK
notes: as for B1

OD450 nm [1]: 2.64
OD450 nm (hPD-L2): 0.214
OD450 nm [2]: 1.56
OD450 nm [3]: 0.67
OD450 nm [4]: 0.67
Mean fluorescence intensity [5]: 206
B5: chimeric anti-PD-L1 antibody 105C5D7 (antibody, V domains shown)
VH: EVQLVESGGGLVQPGGSLRLSCAASGFTFSSYWMSWVRQAPGKGLEWVANIKQDGNEKYYVDSVKGRFTISRDNAKNSLYLQMNSLRAEDTAVYYCARNIKWGDAFDIWGQGTMVTVSS
VL: DIQMTQSPSSLSASVGDRVTITCRASQSISSYLNWYQQKPGKAPKLLIYAASSLQSGVPSRFSGSGSGTDFTLTISSLQPEDFAIYSCQQSYSIPLTFGGGTKVEIK
notes: as for B1

OD450 nm [6]: 1.65
IC50 (read off the curve) [7]: ~0.4 nM
Mean fluorescence intensity [8]: 1.91
Mean fluorescence intensity [9]: 235
Mean fluorescence intensity [10]: 1.78
IL-2 (pg/mL), MLR donor 2, 0.001 µg/mL mAb [11]: 68.2 pg/mL
IL-2 (pg/mL), MLR donor 2, 0.01 µg/mL mAb [11]: 100 pg/mL
IL-2 (pg/mL), MLR donor 2, 0.1 µg/mL mAb [11]: 71.5 pg/mL
IL-2 (pg/mL), MLR donor 2, 1 µg/mL mAb [11]: 101 pg/mL
B6: chimeric anti-PD-L1 antibody 127D2F3 (antibody, V domains shown)
VH: EVQLVESGGGLVQPGGSLRLSCVASGFTFSSYWMSWVRQAPGKGLEWVANIKQDGSEKYYVDSVKGRLTISRDNAKNSLYLQMKSLRAEDTAVYYCARDPIYSSYFDYWGQGILVTVSS
VL: B5 VL with S31N, I85A, S87Y, S93G, L96F, G100P, E105D
notes: as for B1

— patent US20190010233A1 (JIANGSU HYAMAB PHARMACEUTICAL, published 2019)
